# Laboratory results taken from paper doi:10.1101/2022.10.27.514150.
# Target: Gluc1-ΔN(1–433)
# Test: split reporter
# Gluc2-E2F4 FL, sequence (Q16254 whole entry): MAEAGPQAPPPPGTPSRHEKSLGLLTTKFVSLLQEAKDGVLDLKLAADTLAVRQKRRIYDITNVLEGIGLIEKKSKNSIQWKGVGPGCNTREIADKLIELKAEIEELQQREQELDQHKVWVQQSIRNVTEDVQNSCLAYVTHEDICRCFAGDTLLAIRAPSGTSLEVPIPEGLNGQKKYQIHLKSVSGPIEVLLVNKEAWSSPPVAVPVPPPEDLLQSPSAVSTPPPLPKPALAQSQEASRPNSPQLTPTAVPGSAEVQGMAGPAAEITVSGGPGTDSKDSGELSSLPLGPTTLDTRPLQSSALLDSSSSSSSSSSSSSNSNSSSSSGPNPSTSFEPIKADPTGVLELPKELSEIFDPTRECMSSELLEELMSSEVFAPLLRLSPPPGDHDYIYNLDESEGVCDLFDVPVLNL
substance,measurement,value
Gluc2-E2F4 FL (from UniProt Q16254 1-413) (natural protein),normalized luminescence ratio (NLR),> 20
